This is an account of results in patent US20180195091A1, “THERMOPHILIC MICROORGANISMS FOR CONVERSION OF LIGNOCELLULOSIC BIOMASS TO ETHANOL” (THE TRUSTEES OF DARTMOUTH COLLEGE, priority 2015, published 2018).

Several values for one entry are separate records, joined by “and”; a condition that tells them apart may be missing. Equal values may be shown once.

Data set [1] deals with Clostridium thermocellum LL346 (ethanol-tolerant) AdhE, mutations P704L and H734R (Acetivibrio thermocellus, UniProt A3DCI2, H734R/P704L).
Substrate in data set [2]: CC=O
In words: purified protein, by the assay type. The conditions noted are these: pH 7.0; 55.0 °C.

Substrate in data set [3]: NC(=O)C1=CN([C@@H]2O[C@H](COP(=O)(O)OP(=O)(O)OC[C@H]3O[C@@H](n4cnc5c(N)ncnc54)[C@H](O)[C@@H]3O)[C@@H](O)[C@H]2O)C=CC1
Nature of the data set: purified protein, by the assay type. Conditions: pH 7.0; 55.0 °C.

Substrate in data set [4]: NC(=O)C1=CN([C@@H]2O[C@H](COP(=O)(O)OP(=O)(O)OC[C@H]3O[C@@H](n4cnc5c(N)ncnc54)[C@H](OP(=O)(O)O)[C@@H]3O)[C@@H](O)[C@H]2O)C=CC1
Nature of the data set: purified protein, by the assay type. Conditions: pH 7.0; 55.0 °C.

Substrate in data set [5]: CC(=O)SCCNC(=O)CCNC(=O)[C@H](O)C(C)(C)COP(=O)(O)OP(=O)(O)OC[C@H]1O[C@@H](n2cnc3c(N)ncnc32)[C@H](O)[C@@H]1OP(=O)(O)O
In words: purified protein, by the assay type. The conditions noted are these: pH 7.0; 55.0 °C.

Substrate in data set [6]: NC(=O)C1=CN([C@@H]2O[C@H](COP(=O)(O)OP(=O)(O)OC[C@H]3O[C@@H](n4cnc5c(N)ncnc54)[C@H](O)[C@@H]3O)[C@@H](O)[C@H]2O)C=CC1
Nature of the data set: purified protein, by the assay type. The conditions noted are these: pH 7.0; 55.0 °C. The source holds these as a separate data set.

Substrate in data set [7]: CC=O
Nature of the data set: ADH reaction (acetaldehyde reduction) of purified AdhE, apparent kinetics. The format is biochemical, Clostridium thermocellum. Conditions: pH 7.0; 55.0 °C. The protocol:
(§1) 500 μL of E. coli culture containing a plasmid with the adhE gene of interest was inoculated into 100 mL sterile LB broth Miller (Acros) with the appropriate antibiotic, and were grown aerobically to OD600 0.5 with shaking at 200 rpm at 37° C. (Eppendorf Innova 42 shaker). The E. coli strain harboring the pNT-CALML3 control plasmid (Invitrogen) was used as a negative control to measure native E. coli ADH or ALDH activity. The cultures were then transferred to sterile serum bottles, and 40 mM IPTG (Isopropyl β-D-1-thiogalactopyranoside) was used to induce protein expression. The serum bottles were then purged with nitrogen to generate an anaerobic protein expression environment, and the cells were cultured for 2 h at 37° C. before harvesting.
(§2) The E. coli crude extracts described above were incubated at 50° C. anaerobically for 20 min to denature E. coli proteins, and the denatured proteins were separated by centrifugation. In strains LL346 and LL1040, the AdhE proteins were heat labile, and lost activity after 50° C. incubation, so these cell extracts were applied directly to the purification column without heating. E. coli cells expressing the control plasmid pNT-CALML3 were subject to the same treatment as above, and its ADH and ALDH activities before and after heat treatment were measured (Table S3). The cell extracts containing His-tagged AdhE were then subjected to anaerobic affinity column purification (Ni-NTA spin columns, Qiagen). The purification was carried out according to the Qiagen protocol “Ni-NTA Agarose Purification of 6×His-tagged Proteins from E. coli under Native Conditions” with some modifications as described below. The column was first equilibrated with Equilibrium Buffer (50 mM NaH2PO4, 300 mM NaCl, 5 mM imidazole, 5 μM FeSO4, pH 7), then cell extracts were applied to the column and the column was washed twice with Wash Buffer (50 mM NaH2PO4, 300 mM NaCl, 50 mM imidazole, 20% ethanol, 5 μM FeSO4, pH 7). The His-tagged AdhE was eluted by addition of 200 μL Elution Buffer (50 mM NaH2PO4, 300 mM NaCl, 500 mM imidazole, 5 μM FeSO4, pH 7), this is “Eluent 1” in Table S3 and S4. Repeating this elution step sequentially generated more purified “Eluent 2” and “Eluent 3”. For C. thermocellum and T. saccharolyticum AdhE, activity was measured at various stages during purification. […] The degree of protein purity was estimated by gel densitometry using the image analysis software ImageJ, where the density of each visible gel band from Eluent 3 was plotted as peaks. The area of each peak was then integrated to generate percentages, which is an indicator of AdhE purity E. coli cell extracts with native AdhE expressed (i.e. without the His-tag) were used directly without purification.
(§3) All the ALDH activity measurements mentioned in this study refer to the reaction in the acetaldehyde-producing direction. All the ADH activity measurements mentioned in this study refer to the reaction in the ethanol-producing direction. For ADH (acetaldehyde reduction) reactions, the anaerobic reaction mixture contained 0.24 mM NADH or NADPH, 17.6 mM acetaldehyde, 1 mM DTT, 100 mM Tris-HCl, 5 μM FeSO4 and cell extract or purified protein solution (protein amount indicated separately for each assay). The final volume was 850 μL, the assay temperature was 55° C. and the assay was started by the addition of acetaldehyde. For ALDH (acetyl-CoA reduction) reactions, the acetaldehyde in the above anaerobic reaction mixture was substituted with 0.35 mM acetyl-CoA. Decrease in absorbance at 340 nm caused by NAD(P)H oxidation was monitored by an Agilent 8453 UV-Vis spectrophotometer with Peltier temperature control. Protein concentration was determined using the Bradford method with bovine serum albumin (Thermo Scientific) as the standard. Specific activities are expressed as units per mg of protein. One unit of activity=formation of 1 μmol of product per min Specific activities in Table 8 and Table 9 are reported for at least two biological replicates. […]

Substrate in data set [8]: NC(=O)C1=CN([C@@H]2O[C@H](COP(=O)(O)OP(=O)(O)OC[C@H]3O[C@@H](n4cnc5c(N)ncnc54)[C@H](O)[C@@H]3O)[C@@H](O)[C@H]2O)C=CC1
The data set is described as above. The format is biochemical, Clostridium thermocellum. The conditions noted are these: pH 7.0; 55.0 °C. On the procedure:
as §1, §2, §3

Substrate in data set [9]: CC(=O)SCCNC(=O)CCNC(=O)[C@H](O)C(C)(C)COP(=O)(O)OP(=O)(O)OC[C@H]1O[C@@H](n2cnc3c(N)ncnc32)[C@H](O)[C@@H]1OP(=O)(O)O
In words: ALDH reaction (acetyl-CoA reduction) of purified AdhE, apparent kinetics. The format is biochemical, Clostridium thermocellum. The conditions noted are these: pH 7.0; 55.0 °C. On the procedure: as §1, §2, §3

Substrate in data set [10]: NC(=O)C1=CN([C@@H]2O[C@H](COP(=O)(O)OP(=O)(O)OC[C@H]3O[C@@H](n4cnc5c(N)ncnc54)[C@H](O)[C@@H]3O)[C@@H](O)[C@H]2O)C=CC1
The data set is described as above. It counts as biochemical, Clostridium thermocellum. The conditions noted are these: pH 7.0; 55.0 °C. The protocol:
as §1, §2, §3

Where [11] appears, read: in the presence of 2.35 mM NAD^+.

Consider `CCO` [ethanol], for which the “increase in ADH activity” value in data set [1] (purified adhe) was found to be 2 fold.

As for `NC(=O)c1ccc[n+]([C@@H]2O[C@H](COP(=O)([O-])OP(=O)(O)OC[C@H]3O[C@@H](n4cnc5c(N)ncnc54)[C@H](O)[C@@H]3O)[C@@H](O)[C@H]2O)c1` [NAD^+], in data set [1] (setting [11]), the ADH activity retained is reported as 98% and the ALDH activity retained is given as 92%. Also, the “inhibition by NAD^+” value in data set [1] (purified AdhE, concentration not stated) is reported as “less than 10%”.

B1: (Acetivibrio thermocellus; D494G) (protein)
chain: MTKIANKYEVIDNVEKLEKALKRLREAQSVYATYTQEQVDKIFFEAAMAANKMRIPLAKMAVEETGMGVVEDKVIKNHYASEYIYNAYKNTKTCGVIEEDPAFGIKKIAEPLGVIAAVIPTTNPTSTAIFKTLIALKTRNAIIISPHPRAKNSTIEAAKIVLEAAVKAGAPEGIIGWIDVPSLELTNLVMREADVILATGGPGLVKAAYSSGKPAIGVGAGNTPAIIDDSADIVLAVNSIIHSKTFDNGMICASEQSVIVLDGVYKEVKKEFEKRGCYFLNEDETEKVRKTIIINGALNAKIVGQKAHTIANLAGFEVPETTKILIGEVTSVDISEEFAHEKLCPVLAMYRAKDFDDALDKAERLVADGGFGHTSSLYIDTVTQKEKLQKFSERMKTCRILVNTPSSQGGIGDLYNFKLAPSLTLGCGSWGGNSVSDNVGVKHLLNIKTVAERRENMLWFRTPEKIYIKRGCLPVALDELKNVMGKKKAFIVTGNFLYNNGYTKPITDKLDEMGIVHKTFFDVSPDPSLASAKAGAAEMLAFQPDTIIAVGGGSAMDAAKIMWVMYEHPEVDFMDMAMRFMDIRKRVYTFPKMGQKAYFIAIPTSAGTGSEVTPFAVITDEKTGIKYPLADYELLPDMAIVDADMMMNAPKGLTAASGIDALTHALEAYVSMLATDYTDSLALRAIKMIFEYLPRAYENGASDLVAREKMANAATIAGMAFANAFLGVCHSMARKLGAFYHLPHGVANALMINEVIRFNSSEAPTKMGTFPQYDHPRTLERYAEIADYIGLKGKNNEEKVENLIKAIDELKEKVGIRKTIKDYDIDEKEFLDRLDEMVEQAFDDQCTGTNPRYPLMNEIRQMYLNAYYGGAKK
As to B1, the Km (as a rule, the concentration of substrate that gives half-maximal velocity) in [2] was 2100 ± 200 µM and 1800 ± 200 µM; in data set [3], 400 ± 50 µM; in data set [4] it was 80 ± 20 µM; in data set [5] it was 4 ± 0.5 µM; in data set [6], 20 ± 2 µM. The catalytic constant (kcat) – broadly, the number of substrate molecules converted per active site and unit of time at saturation – in data set [2] is 318 s⁻¹ and 246 s⁻¹; in data set [3] it was 319 ± 21 s⁻¹; in data set [4], 295 ± 18 s⁻¹; in [5], 202 ± 4 s⁻¹; in [6], 64 ± 2 s⁻¹. For the same molecule, the kcat/Km (commonly the turnover number divided by the Michaelis constant) in data set [2] is 150000 M⁻¹ s⁻¹ and 140000 M⁻¹ s⁻¹; in data set [3] it was 890000 M⁻¹ s⁻¹; in data set [4], 3.8e+06 M⁻¹ s⁻¹; in data set [5], 5.8e+07 M⁻¹ s⁻¹; in [6], 3.4e+06 M⁻¹ s⁻¹.

B2: (Acetivibrio thermocellus) (protein)
chain: MTKIANKYEVIDNVEKLEKALKRLREAQSVYATYTQEQVDKIFFEAAMAANKMRIPLAKMAVEETGMGVVEDKVIKNHYASEYIYNAYKNTKTCGVIEEDPAFGIKKIAEPLGVIAAVIPTTNPTSTAIFKTLIALKTRNAIIISPHPRAKNSTIEAAKIVLEAAVKAGAPEGIIGWIDVPSLELTNLVMREADVILATGGPGLVKAAYSSGKPAIGVGAGNTPAIIDDSADIVLAVNSIIHSKTFDNGMICASEQSVIVLDGVYKEVKKEFEKRGCYFLNEDETEKVRKTIIINGALNAKIVGQKAHTIANLAGFEVPETTKILIGEVTSVDISEEFAHEKLCPVLAMYRAKDFDDALDKAERLVADGGFGHTSSLYIDTVTQKEKLQKFSERMKTCRILVNTPSSQGGIGDLYNFKLAPSLTLGCGSWGGNSVSDNVGVKHLLNIKTVAERRENMLWFRTPEKIYIKRGCLPVALDELKNVMGKKKAFIVTDNFLYNNGYTKPITDKLDEMGIVHKTFFDVSPDPSLASAKAGAAEMLAFQPDTIIAVGGGSAMDAAKIMWVMYEHPEVDFMDMAMRFMDIRKRVYTFPKMGQKAYFIAIPTSAGTGSEVTPFAVITDEKTGIKYPLADYELLPDMAIVDADMMMNAPKGLTAASGIDALTHALEAYVSMLATDYTDSLALRAIKMIFEYLPRAYENGASDLVAREKMANAATIAGMAFANAFLGVCHSMARKLGAFYHLPHGVANALMINEVIRFNSSEAPTKMGTFPQYDHPRTLERYAEIADYIGLKGKNNEEKVENLIKAIDELKEKVGIRKTIKDYDIDEKEFLDRLDEMVEQAFDDQCTGTNPRYPLMNEIRQMYLNAYYGGAKK
Take B2: the Km in data set [7] is 1300 ± 200 µM; in [8], 100 ± 20 µM; in data set [9] it was 8 ± 2 µM; in data set [10] it was 60 ± 4 µM. Besides, the turnover number (kcat) in [7] stood at 238 ± 8 s⁻¹; in [8], 302 ± 13 s⁻¹; in [9] it was 297 ± 11 s⁻¹; in data set [10], 152 ± 4 s⁻¹. Moreover, the kcat/Km in [7] stood at 180000 M⁻¹ s⁻¹; in data set [8] it was 2.3e+06 M⁻¹ s⁻¹; in data set [9] it was 3.5e+07 M⁻¹ s⁻¹; in [10], 2.8e+06 M⁻¹ s⁻¹.
